Laboratory results as given in the supplement of paper PMC10065799, “High-throughput profiling of sequence recognition by tyrosine kinases and SH2 domains using bacterial peptide display” (eLife, 2023).

Experiments:
c-Src SH2 = assay: SH2 binding enrichment of the phosphorylated peptide, bacterial display (enrichment ratio); higher = better substrate or ligand; peptides without Tyr show the background
Grb2 SH2 = Grb2 SH2 (UniProt P62993); assay: as above
SHP2-C SH2 = assay: as above
Fer (mouse) = assay: phosphorylation enrichment, bacterial display (enrichment ratio); higher = better substrate or ligand; peptides without Tyr show the background
Fyn = Fyn (UniProt P06241); assay: as above
Fyn, sequence (P06241 whole entry, looked up): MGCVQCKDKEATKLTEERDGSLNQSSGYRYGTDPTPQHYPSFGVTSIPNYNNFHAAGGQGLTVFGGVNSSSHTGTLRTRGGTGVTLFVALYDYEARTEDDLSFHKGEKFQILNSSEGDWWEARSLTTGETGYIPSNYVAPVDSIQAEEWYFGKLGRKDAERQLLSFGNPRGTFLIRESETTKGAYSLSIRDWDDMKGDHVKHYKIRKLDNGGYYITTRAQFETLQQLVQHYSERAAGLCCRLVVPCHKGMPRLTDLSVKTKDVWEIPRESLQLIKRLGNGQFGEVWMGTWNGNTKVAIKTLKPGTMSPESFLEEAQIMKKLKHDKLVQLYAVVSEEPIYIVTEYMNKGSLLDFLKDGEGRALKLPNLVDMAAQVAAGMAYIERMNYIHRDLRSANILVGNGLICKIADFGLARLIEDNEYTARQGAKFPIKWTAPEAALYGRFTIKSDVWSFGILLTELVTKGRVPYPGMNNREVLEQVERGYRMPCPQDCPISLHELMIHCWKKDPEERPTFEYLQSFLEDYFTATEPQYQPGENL

MERTK = MERTK (UniProt Q12866); assay: as above
c-Src = assay: as above
AncSZ = assay: as above
EPHB2 = EPHB2 (UniProt P29323); assay: as above
EPHB2, sequence (P29323 whole entry, looked up): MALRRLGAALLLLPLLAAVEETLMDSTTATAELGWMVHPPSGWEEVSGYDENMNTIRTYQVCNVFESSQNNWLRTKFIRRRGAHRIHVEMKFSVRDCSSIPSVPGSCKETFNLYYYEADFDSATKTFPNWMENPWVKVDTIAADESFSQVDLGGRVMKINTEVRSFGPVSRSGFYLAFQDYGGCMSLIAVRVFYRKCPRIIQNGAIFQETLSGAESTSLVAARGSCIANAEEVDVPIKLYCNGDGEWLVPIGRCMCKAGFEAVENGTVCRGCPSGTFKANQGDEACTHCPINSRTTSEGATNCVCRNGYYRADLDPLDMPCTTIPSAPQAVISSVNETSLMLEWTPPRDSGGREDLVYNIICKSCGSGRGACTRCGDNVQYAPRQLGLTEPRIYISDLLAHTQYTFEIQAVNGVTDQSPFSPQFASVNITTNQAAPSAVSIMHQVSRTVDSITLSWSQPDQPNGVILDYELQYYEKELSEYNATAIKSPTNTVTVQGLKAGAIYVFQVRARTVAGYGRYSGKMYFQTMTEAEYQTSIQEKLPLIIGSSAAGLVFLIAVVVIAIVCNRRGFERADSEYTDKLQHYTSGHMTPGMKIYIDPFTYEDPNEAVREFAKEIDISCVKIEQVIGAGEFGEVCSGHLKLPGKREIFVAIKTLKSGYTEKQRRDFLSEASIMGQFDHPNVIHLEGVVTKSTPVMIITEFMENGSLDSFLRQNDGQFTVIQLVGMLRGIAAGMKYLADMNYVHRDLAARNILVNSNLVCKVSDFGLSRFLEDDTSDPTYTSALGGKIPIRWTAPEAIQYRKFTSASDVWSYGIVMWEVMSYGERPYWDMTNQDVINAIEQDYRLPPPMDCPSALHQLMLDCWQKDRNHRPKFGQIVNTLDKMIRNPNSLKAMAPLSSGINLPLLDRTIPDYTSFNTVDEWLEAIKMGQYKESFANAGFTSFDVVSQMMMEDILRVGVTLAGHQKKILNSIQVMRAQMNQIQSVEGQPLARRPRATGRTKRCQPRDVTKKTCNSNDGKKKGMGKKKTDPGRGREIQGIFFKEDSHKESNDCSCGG

Hck = Hck (UniProt P08631); assay: as above
Hck, sequence (P08631 whole entry, looked up): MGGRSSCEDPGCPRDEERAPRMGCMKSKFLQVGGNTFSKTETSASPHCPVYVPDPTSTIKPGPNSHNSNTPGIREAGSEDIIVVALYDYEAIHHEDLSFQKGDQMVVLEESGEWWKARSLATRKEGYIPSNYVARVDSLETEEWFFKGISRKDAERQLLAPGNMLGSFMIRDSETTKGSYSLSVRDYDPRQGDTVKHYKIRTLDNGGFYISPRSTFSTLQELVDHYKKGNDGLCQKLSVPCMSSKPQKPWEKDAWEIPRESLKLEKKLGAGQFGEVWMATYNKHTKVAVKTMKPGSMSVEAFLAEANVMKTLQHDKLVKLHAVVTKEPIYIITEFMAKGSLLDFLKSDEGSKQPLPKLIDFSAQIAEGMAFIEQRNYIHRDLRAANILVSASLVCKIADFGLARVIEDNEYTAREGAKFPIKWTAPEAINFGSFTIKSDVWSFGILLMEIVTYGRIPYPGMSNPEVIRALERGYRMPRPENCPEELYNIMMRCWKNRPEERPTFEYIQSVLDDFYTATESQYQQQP

c-Abl (mouse) = assay: as above
FGFR3 = FGFR3 (UniProt P22607); assay: as above
EPHB1 = EPHB1 (UniProt P54762); assay: as above
EPHB1, sequence (P54762 whole entry, looked up): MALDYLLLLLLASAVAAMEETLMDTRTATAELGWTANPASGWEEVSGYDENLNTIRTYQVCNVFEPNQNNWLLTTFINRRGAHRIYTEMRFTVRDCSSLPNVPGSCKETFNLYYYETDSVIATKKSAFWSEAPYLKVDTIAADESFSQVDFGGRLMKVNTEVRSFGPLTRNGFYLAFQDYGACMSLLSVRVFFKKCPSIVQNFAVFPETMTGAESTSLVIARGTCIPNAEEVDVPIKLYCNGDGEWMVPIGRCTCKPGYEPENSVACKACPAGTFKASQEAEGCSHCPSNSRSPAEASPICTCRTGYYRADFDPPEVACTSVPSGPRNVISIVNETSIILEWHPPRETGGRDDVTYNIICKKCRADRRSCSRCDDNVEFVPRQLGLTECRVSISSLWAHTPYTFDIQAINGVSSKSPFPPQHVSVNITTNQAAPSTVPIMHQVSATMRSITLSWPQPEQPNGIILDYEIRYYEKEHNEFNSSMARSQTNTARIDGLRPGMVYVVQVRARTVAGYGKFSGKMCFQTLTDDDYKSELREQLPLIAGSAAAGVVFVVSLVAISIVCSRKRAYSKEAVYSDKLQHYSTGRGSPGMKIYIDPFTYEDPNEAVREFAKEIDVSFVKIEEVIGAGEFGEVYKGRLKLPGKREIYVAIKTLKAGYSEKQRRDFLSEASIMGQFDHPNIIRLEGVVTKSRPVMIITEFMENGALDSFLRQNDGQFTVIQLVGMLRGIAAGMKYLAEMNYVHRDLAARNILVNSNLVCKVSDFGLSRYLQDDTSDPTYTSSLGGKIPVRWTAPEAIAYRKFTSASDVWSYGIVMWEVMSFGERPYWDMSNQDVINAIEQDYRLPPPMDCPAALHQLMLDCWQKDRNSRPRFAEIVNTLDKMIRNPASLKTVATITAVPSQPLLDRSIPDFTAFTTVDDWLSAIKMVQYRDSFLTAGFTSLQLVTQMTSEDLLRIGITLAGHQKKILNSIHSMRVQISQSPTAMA

Fes = Fes (UniProt P07332); assay: as above
Fes, sequence (P07332 whole entry, looked up): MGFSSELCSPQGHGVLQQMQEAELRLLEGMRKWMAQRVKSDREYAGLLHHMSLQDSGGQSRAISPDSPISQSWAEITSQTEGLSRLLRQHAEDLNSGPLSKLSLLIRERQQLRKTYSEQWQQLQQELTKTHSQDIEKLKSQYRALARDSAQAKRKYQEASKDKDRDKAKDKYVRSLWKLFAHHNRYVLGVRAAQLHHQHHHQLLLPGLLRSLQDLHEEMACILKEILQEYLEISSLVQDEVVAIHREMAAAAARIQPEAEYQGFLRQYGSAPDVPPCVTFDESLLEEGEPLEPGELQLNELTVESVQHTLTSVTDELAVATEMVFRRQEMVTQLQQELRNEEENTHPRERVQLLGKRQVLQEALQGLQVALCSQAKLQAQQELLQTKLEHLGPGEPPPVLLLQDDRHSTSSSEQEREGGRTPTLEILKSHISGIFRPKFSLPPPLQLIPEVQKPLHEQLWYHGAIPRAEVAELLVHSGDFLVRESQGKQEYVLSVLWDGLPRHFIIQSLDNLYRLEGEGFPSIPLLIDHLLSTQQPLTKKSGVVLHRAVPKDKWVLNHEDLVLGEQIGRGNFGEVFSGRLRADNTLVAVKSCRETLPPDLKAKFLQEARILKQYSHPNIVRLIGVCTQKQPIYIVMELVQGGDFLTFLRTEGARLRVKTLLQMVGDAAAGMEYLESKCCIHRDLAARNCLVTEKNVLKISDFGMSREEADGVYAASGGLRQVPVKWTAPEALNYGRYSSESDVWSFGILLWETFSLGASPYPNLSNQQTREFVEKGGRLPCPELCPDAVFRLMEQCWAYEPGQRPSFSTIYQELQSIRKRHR

Jak2 = Jak2 (UniProt O60674); assay: as above
Jak2, sequence (O60674 whole entry, looked up): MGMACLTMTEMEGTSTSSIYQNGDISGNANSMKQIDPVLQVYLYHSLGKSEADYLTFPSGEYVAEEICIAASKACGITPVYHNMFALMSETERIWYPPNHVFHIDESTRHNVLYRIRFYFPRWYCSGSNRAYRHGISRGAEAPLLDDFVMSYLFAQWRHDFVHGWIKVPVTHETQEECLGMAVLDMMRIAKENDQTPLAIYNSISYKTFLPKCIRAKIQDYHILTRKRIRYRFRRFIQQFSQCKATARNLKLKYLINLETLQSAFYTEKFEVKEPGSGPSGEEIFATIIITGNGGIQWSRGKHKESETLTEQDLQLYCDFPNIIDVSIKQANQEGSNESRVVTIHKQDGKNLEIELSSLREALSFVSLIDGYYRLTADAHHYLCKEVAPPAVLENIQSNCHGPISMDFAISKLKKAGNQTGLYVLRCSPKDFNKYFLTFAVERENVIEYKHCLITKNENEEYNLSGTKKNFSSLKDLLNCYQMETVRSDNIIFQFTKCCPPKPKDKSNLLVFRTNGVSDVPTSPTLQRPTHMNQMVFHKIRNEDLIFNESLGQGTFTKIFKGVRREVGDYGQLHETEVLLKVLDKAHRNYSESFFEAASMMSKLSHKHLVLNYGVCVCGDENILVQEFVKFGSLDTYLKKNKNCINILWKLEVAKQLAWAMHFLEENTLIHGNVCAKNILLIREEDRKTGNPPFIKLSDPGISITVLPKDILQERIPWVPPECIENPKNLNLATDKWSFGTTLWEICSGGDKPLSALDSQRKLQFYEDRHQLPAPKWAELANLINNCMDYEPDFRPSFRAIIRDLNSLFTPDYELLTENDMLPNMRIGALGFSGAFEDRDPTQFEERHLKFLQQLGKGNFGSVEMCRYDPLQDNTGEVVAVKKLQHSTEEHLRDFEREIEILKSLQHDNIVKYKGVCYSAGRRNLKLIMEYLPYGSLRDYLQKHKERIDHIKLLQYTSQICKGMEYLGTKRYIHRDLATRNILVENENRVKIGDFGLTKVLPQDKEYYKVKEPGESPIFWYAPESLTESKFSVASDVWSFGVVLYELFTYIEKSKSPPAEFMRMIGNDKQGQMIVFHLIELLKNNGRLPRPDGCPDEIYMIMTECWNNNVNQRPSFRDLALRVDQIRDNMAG

FGFR1 = FGFR1 (UniProt P11362); assay: as above
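Wherever SH2 binding enrichment of the phosphorylated peptide, bacterial display is given: peptide library displayed on the E. coli surface as eCPX fusions, selected cells deep-sequenced, score is each peptide's frequency after selection divided by its frequency in the input.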
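Wherever phosphorylation enrichment, bacterial display is given: 11-residue human phosphosite peptides and single-mutation variants displayed on the E. coli surface, counted by deep sequencing, each peptide's frequency after selection divided by its frequency in the unselected input library; frequency after pTyr selection over input frequency; kinase dosed for 20-30% of maximal phosphorylation in three min.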

Sequence | SH2 binding enrichment (c-Src SH2) | SH2 binding enrichment (Grb2 SH2) | SH2 binding enrichment (SHP2-C SH2) | phosphorylation enrichment (Fer (mouse)) | phosphorylation enrichment (Fyn) | phosphorylation enrichment (MERTK) | phosphorylation enrichment (c-Src) | phosphorylation enrichment (AncSZ) | phosphorylation enrichment (EPHB2) | phosphorylation enrichment (Hck) | phosphorylation enrichment (c-Abl (mouse)) | phosphorylation enrichment (FGFR3) | phosphorylation enrichment (EPHB1) | phosphorylation enrichment (Fes) | phosphorylation enrichment (Jak2) | phosphorylation enrichment (FGFR1)
LCRFGYANTSE [SI_Y1233_YF] | 0.877 | 1.47 | 0.881 | 0.381 | 0.419 | 0.423 | 0.405 | 0.756 | 0.529 | 0.422 | 0.625 | 0.581 | 0.454 | 0.893 | 0.706 | 0.455
LLIVEYAKFGS [RET_Y806_YF] | 1.05 | 1.14 | 1.29 | 1.16 | 1.4 | 0.585 | 1.13 | 1.79 | 1.72 | 1.25 | 1.67 | 1.36 | 5.93 | 1.83 | 1.6 | 0.909
GPKFVYDEIDN [ACOX1_Y232_G231V] | 24.5 | 0.709 | 0.653 | 0.409 | 0.537 | 0.413 | 0.514 | 1.1 | 0.556 | 0.467 | 0.652 | 0.57 | 0.505 | 1.04 | 0.92 | 0.482
VNFGAYINNFK [GLB1_Y488_D491N_YF] | 0.589 | 0.834 | 0.803 | 0.579 | 0.463 | 0.362 | 0.391 | 1.03 | 0.635 | 0.523 | 0.535 | 0.689 | 0.566 | 0.912 | 0.662 | 0.535
FGDTSYIPFRD [CDC14C_Y132_P131S] | 0.536 | 0.8 | 0.599 | 0.391 | 0.443 | 0.452 | 0.518 | 0.659 | 0.533 | 0.443 | 0.546 | 0.496 | 0.424 | 0.672 | 0.676 | 0.517
EKLQKYYRQNP [EHHADH_Y682] | 0.548 | 0.927 | 0.746 | 0.367 | 0.391 | 0.371 | 0.428 | 0.523 | 0.543 | 0.408 | 0.581 | 0.497 | 0.568 | 0.667 | 0.55 | 0.509
LFSNAYLSDLA [ALDH1A1_Y119_N121S_YF] | 0.36 | 0.783 | 0.601 | 1.31 | 1.23 | 1.81 | 2.79 | 2.21 | 1.15 | 0.974 | 2.14 | 1.42 | 2.12 | 2.92 | 2.06 | 2.39
SEHLIYLEFKS [RASGRP1_Y215_T214I] | 0.499 | 0.801 | 0.729 | 0.69 | 6.74 | 0.875 | 5.64 | 1.44 | 1.04 | 5.08 | 6.39 | 1.77 | 1.58 | 1.46 | 1.2 | 1.61
TLNFFYQQVKS [PTK2_Y148] | 0.885 | 0.802 | 0.768 | 0.575 | 0.516 | 0.366 | 0.361 | 1.15 | 0.658 | 0.471 | 0.606 | 0.849 | 0.68 | 1.15 | 1 | 0.471
RHEASYSSDSE [REPS1_Y116_A113E] | 0.634 | 0.861 | 0.686 | 0.777 | 0.845 | 0.461 | 0.427 | 1.03 | 0.591 | 0.954 | 0.662 | 0.841 | 0.837 | 1.19 | 0.784 | 0.722
ITLKGYNLSKS [GNPTAB_Y728] | 0.321 | 0.614 | 0.484 | 0.414 | 0.355 | 0.367 | 0.451 | 0.601 | 0.346 | 0.426 | 0.317 | 0.402 | 0.342 | 0.686 | 0.482 | 0.397
TRDVNYGWIIH [MT-CYB_Y75_R80H] | 0.522 | 0.99 | 1.23 | 4.76 | 0.508 | 1.98 | 0.524 | 1.06 | 1.14 | 0.523 | 0.908 | 0.736 | 0.938 | 1.11 | 1.15 | 0.703
LENQTYFRSFE [AKAP9_Y2482_K2484R] | 0.624 | 0.803 | 0.546 | 0.632 | 0.851 | 0.537 | 0.55 | 0.881 | 0.811 | 0.678 | 0.843 | 1.02 | 0.487 | 1.14 | 1.09 | 0.571
RFVVLYDAELT [ERCC4_Y581_YF] | 0.837 | 1.61 | 1.31 | 0.672 | 0.657 | 0.979 | 0.807 | 1.58 | 1.15 | 0.91 | 0.876 | 0.763 | 1.38 | 1.9 | 1.72 | 0.841
SSGSRYQPLAS [NCAPD2_Y1325_T1321S] | 0.583 | 0.977 | 0.843 | 0.392 | 0.384 | 0.43 | 0.453 | 0.529 | 0.431 | 0.442 | 0.488 | 0.433 | 0.366 | 0.558 | 0.531 | 0.468
REATAYLHGRL [AGXT_Y297_A295T] | 0.483 | 0.794 | 0.571 | 0.615 | 0.595 | 0.374 | 0.521 | 0.665 | 0.662 | 0.488 | 0.63 | 0.533 | 0.539 | 0.793 | 0.871 | 0.534
GKVADYIPQLA [GLS_Y249] | 0.481 | 0.882 | 0.924 | 0.453 | 0.514 | 0.396 | 0.349 | 0.634 | 0.477 | 0.408 | 0.483 | 0.538 | 0.51 | 0.684 | 0.5 | 0.478

Sequence | SH2 binding enrichment (c-Src SH2) | SH2 binding enrichment (Grb2 SH2) | SH2 binding enrichment (SHP2-C SH2) | phosphorylation enrichment (Fer (mouse)) | phosphorylation enrichment (Fyn) | phosphorylation enrichment (MERTK) | phosphorylation enrichment (c-Src) | phosphorylation enrichment (AncSZ) | phosphorylation enrichment (EPHB2) | phosphorylation enrichment (Hck) | phosphorylation enrichment (c-Abl (mouse)) | phosphorylation enrichment (FGFR3) | phosphorylation enrichment (EPHB1) | phosphorylation enrichment (Fes) | phosphorylation enrichment (Jak2) | phosphorylation enrichment (FGFR1)
ERMKVYVPTGF [EPHX1_Y393] | 0.56 | 0.761 | 0.768 | 0.562 | 0.515 | 0.453 | 0.563 | 0.658 | 0.522 | 0.472 | 0.672 | 0.539 | 0.407 | 0.818 | 0.557 | 0.513
TFGVVYRAKDK [CDK11B_Y453_YF] | 0.426 | 0.808 | 0.64 | 0.372 | 0.563 | 0.396 | 0.513 | 0.831 | 0.592 | 0.481 | 0.584 | 0.506 | 0.428 | 0.798 | 0.703 | 0.333
FNNFGYGSDGF [HNRNPH3_Y161_N163S_YF] | 0.386 | 0.823 | 0.685 | 0.455 | 0.442 | 0.455 | 0.453 | 0.856 | 0.592 | 0.57 | 0.727 | 0.593 | 0.527 | 0.962 | 0.829 | 0.499
ICGVSYDEFRF [CFTR_Y512_F508C_YF] | 0.847 | 0.838 | 0.664 | 1.17 | 0.764 | 0.571 | 1.49 | 1.51 | 0.642 | 0.842 | 1.03 | 0.967 | 0.663 | 1.5 | 1.21 | 0.553
GLDGSYLLRYS [SH2D1A_Y29_D33Y] | 0.438 | 0.97 | 1.14 | 0.415 | 0.485 | 0.434 | 0.441 | 0.685 | 0.455 | 0.512 | 0.542 | 0.57 | 0.436 | 0.979 | 0.665 | 0.478
CEHRGHLYLAI [TEK_Y897_Y897H] | 1.21 | 1.16 | 1.27 | 0.537 | 0.908 | 0.374 | 0.377 | 1.07 | 0.441 | 0.417 | 0.676 | 0.722 | 0.665 | 1.28 | 0.833 | 0.646
LGQRIYQFIQS [DYRK1B_Y271_YF] | 2.23 | 1.02 | 1.33 | 10.1 | 2.42 | 8.85 | 4.15 | 0.916 | 5.42 | 4.98 | 1.3 | 1.5 | 11.7 | 1.26 | 0.725 | 2.23
FQGGTYSKAST [FGG_Y380_YF] | 0.657 | 0.787 | 1.14 | 0.325 | 0.372 | 0.46 | 0.41 | 0.448 | 0.452 | 0.308 | 0.446 | 0.413 | 0.377 | 0.544 | 0.478 | 0.495
EARRVYGDIIH [ALDH5A1_Y175] | 0.445 | 0.977 | 0.561 | 0.477 | 0.514 | 0.408 | 0.499 | 0.608 | 0.378 | 0.42 | 0.596 | 0.447 | 0.41 | 0.707 | 0.517 | 0.426
GAPATYKGDAR [CACNA1A_Y1013_E1014K] | 0.483 | 1.09 | 1.17 | 0.319 | 0.366 | 0.384 | 0.401 | 0.432 | 0.422 | 0.384 | 0.568 | 0.452 | 0.332 | 0.52 | 0.489 | 0.419
GRSTYYWPSPR [GAGE12J_Y10_R13S] | 0.898 | 1.12 | 0.923 | 1.44 | 6.75 | 17 | 7.28 | 1.78 | 11.1 | 7.41 | 6.32 | 5.22 | 10.5 | 0.796 | 7.45 | 7.32
QLCVNYPGGFT [PROS1_Y259_YF] | 0.538 | 0.73 | 0.613 | 0.692 | 0.675 | 0.552 | 0.37 | 1.45 | 0.697 | 0.85 | 0.835 | 0.904 | 0.792 | 1.61 | 0.907 | 0.698
LLQKTYNFNVL [SLC4A1_Y553_P548L_YF] | 0.593 | 1.09 | 0.916 | 1.05 | 0.749 | 0.997 | 0.594 | 1.41 | 0.984 | 0.88 | 0.77 | 1.24 | 0.909 | 1.2 | 0.81 | 0.889
LADMNYVHRDL [EPHB2_Y742] | 0.305 | 0.676 | 0.667 | 0.933 | 0.481 | 0.796 | 0.721 | 1.51 | 0.565 | 0.916 | 0.923 | 0.801 | 0.762 | 1.6 | 0.916 | 0.714
ESKAGYRAPRS [CLDN7_Y195_V197A] | 0.542 | 1.04 | 0.74 | 0.339 | 0.415 | 0.34 | 0.349 | 0.536 | 0.415 | 0.404 | 0.402 | 0.483 | 0.35 | 0.519 | 0.593 | 0.425
VYYGSYSRPYG [NKAP_Y104] | 2.61 | 1.64 | 1.81 | 0.835 | 9.54 | 6.16 | 7.11 | 1.19 | 2.66 | 8.09 | 8.1 | 2.01 | 1.7 | 0.756 | 2.87 | 2.77
